Laboratory results from US7030099B2, “Tumor specific promoters of the midkine gene that allow for selective expression in P53-inactivated cells” (Research Corporation Technologies, Inc., priority 2000, dated 2006).

How the values were obtained:
[1] = tested on: normal human fibroblasts HEF, MRC-5; assay: Luciferase assay of c-erbB-2 promoter activity, normal fibroblasts; format: cell-based; conditions: FIG. 7B
Procedure: (§1) With the transcription initiation site of the c-erbB-2 gene as +1, DNA that corresponded to a genomic region (p533) from −435 to +38 and that had the sequence set forth in SEQ ID NO: 7 was amplified by the PCR method, and then the DNA fragment was integrated into the pGEM-TEasy (manufactured by Promega), and the sequences of the PCR product was determined. Thus, after inserting this PCR product into the SmaI site of pGL2-Basic (manufactured by Promega), it was cleaved with BlnI/SmaI, PstI/SmaI, and BssHII/SmaI using the restriction enzyme sites present on the c-erbB-2 genomic gene to construct plasmids in which the genomic regions of c-erbB-2, p344 (−306/+38) (DNA having the base sequence set forth in SEQ ID NO: 8), p251 (−213/+38) (DNA having the base sequence set forth in SEQ ID NO: 9) and p124 (−86/+38) (DNA having the base sequence set forth in SEQ ID NO: 10) are localized upstream of the Firefly luciferase gene, respectively. Using the plasmid pGL2-Control (manufactured by Promega) having the promoter of SV40 virus and the plasmid pGL2-Basic (manufactured by Promega) containing no promoters, gene introduction was performed in human breast cancer cells OCUBM, MCF7, BT549, normal human fibroblasts HEF, MRC-5, human malignant melanoma A875, and human lung cancer cells QG-56, all of which were cultured in DMEM (Sigma) supplemented with 10% bovine fetal serum. Firstly, after 10 μg each of these plasmids and lipofectin (Life Technologies) were mixed, it was allowed to stand at room temperature for 30 minutes to form a complex of DNA and lipid. Then the complex, after removing the bovine fetal serum therefrom, was contacted with the cells. Eight hours later culture medium supplemented with bovine fetal serum was added. After 48 hours-culture, the cells were disrupted using the Dual-Luciferase Reporter Assay System (manufactured by Promega), and the Firefly luciferase activity therein was determined using the reagents in the same kit. In order to normalize the efficiency of gene introduction, 1 μg of pRL-TK plasmid (manufactured by Promega) was included in each gene-introduced group, and the Renilla luciferase activity by the TK promoter was determined, based on which the Firefly luciferase activity was corrected.

[2] = tested on: human breast cancer cells OCUBM, MCF7, BT549; assay: Luciferase assay of c-erbB-2 promoter activity, breast cancer cells; format: cell-based; conditions: FIG. 7A
Procedure: as §1, with “Then the complex, after removing the bovine fetal serum therefrom, was contacted with the cells. Eight hours later culture medium supplemented with bovine fetal serum was added.” left out

breast cancer cells MCF7 = assay: In vitro sensitivity to GCV of promoter-TK gene-introduced cells; format: cell-based, human; conditions: GCV seven days, FIG. 8A
Procedure: (§2) In order to examine the cytotoxic effects using the p251 promoter, a suicide gene HSV-TK was ligated downstream of this promoter region (pro251-TK), this plasmid was expressed in cells, and a prodrug GCV was added to the culture of the gene-introduced cells. The measurement of cytotoxic effects by this system was carried out according to the method described in Moolten, Fla. Cancer Gene Ther., 1:279–287, 1994. Firstly, the cytomegalovirus (CMV) promoter of pcDNA3 (manufactured by Invitrogen) was removed using NruI and HindIII sites, into which the p251 promoter was inserted and then using the EcoRV site, the HSV-TK gene excised from pMK (Brinster, R L et al., Cell, 27:223–231, 1981) with BglI and EcoRI was inserted (pro251-TK). As a control, a pcDN3-derived plasmid (pro251) that contains no HSV-TK gene but has integrated the p251 promoter, and a pcDNA3-derived plasmid (CMV-TK) that has the HSV-TK gene and permits the expression of the HSV-TK gene were also used. Each of the plasmids ([…], pro251-TK, CMV-TK) was introduced using lipofectin into the breast cancer cells MCF7 or non-breast cancer cells A875. In order to utilize the expression of the Neo gene contained in pcDNA3 as a drug resistant marker, the transfected cells were cultured with 400 μg/ml of G418 (manufactured by Life Technologies) for ten days to establish the cells that express a respective gene. […]

[3] = tested on: non-breast cancer cells A875; assay: as above; format: cell-based, human; conditions: GCV seven days, FIG. 8B
Procedure: as §2

[4] = tested on: human malignant melanoma A875, human lung cancer cells QG-56; assay: Luciferase assay of c-erbB-2 promoter activity, non-breast tumor cells; format: cell-based; conditions: human malignant melanoma cells and human lung cancer cells; FIG. 7C
Procedure: as §1

B1: p251: c-erbB-2 genomic region −213/+38, SEQ ID NO: 9 (nucleic acid, listed as Homo sapiens)
DNA: GGCAACCCAGGCGTCCCGGCGCTAGGAGGGACGACCCAGGCCTGCGCGAAGAGAGGGAGAAAGTGAAGCTGGGAGTTGCCGACTCCCAGACTTCGTTGGAATGCAGTTGGAGGGGGCGAGCTGGGAGCGCGCTTGCTCCCAATCACAGGAGAAGGAGGAGGTGGAGGAGGAGGGCTGCTTGAGGAAGTATAAGAATGAAGTTGTGAAGCTGAGATTCCCCTCCATTGGGACCGGAGAAACCAGGGGAGCCC
- promoter activity compared with SV40 promoter [1]: lower than the SV40 promoter
- transcription activity compared with other c-erbB-2 promoter fragments [1]: low compared with the p344 promoter and with the p533 promoter
- promoter activity compared with promoter of SV40 virus [2]: more potent than the promoter of SV40 virus
- transcription activity compared with other c-erbB-2 promoter fragments [2]: higher transcription activity than the p533 promoter
- sensitivity to GCV of cells expressing HSV-TK under the promoter (breast cancer cells MCF7): greater sensitivity to GCV than the parent strain
- sensitivity to GCV of cells expressing HSV-TK under the promoter [3]: very weak compared with of the parent strain
- transcription activity compared with SV40 promoter [4]: lower than the SV40 promoter
- transcription activity compared with p533 promoter [4]: about the same as that of p533 promoter
